T1: His-HT1-R173Q (Arabidopsis thaliana, UniProt Q2MHE4 1-390, R173Q)
T1 construct: HT1 protein kinase of Arabidopsis thaliana with R173Q (dominant allele from an EMS screen); As m1 with the point mutation; source: E. coli, purified (Ni resin beads); not shown: His tag, N-terminal, kept
T1 sequence (looked up): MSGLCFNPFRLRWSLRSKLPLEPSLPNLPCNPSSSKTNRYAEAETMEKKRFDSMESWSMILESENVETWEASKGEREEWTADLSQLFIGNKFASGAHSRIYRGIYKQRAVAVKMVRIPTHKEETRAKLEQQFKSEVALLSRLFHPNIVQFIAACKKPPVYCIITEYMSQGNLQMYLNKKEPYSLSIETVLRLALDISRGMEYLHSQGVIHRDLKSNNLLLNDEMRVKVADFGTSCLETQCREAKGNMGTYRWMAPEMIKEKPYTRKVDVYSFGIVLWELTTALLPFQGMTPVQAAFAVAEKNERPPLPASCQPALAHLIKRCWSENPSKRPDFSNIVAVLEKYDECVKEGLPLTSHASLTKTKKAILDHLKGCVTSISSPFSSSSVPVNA

T2: His-HT1 (high leaf temperature 1, Raf-like protein kinase), wild type (Arabidopsis thaliana, UniProt Q2MHE4 1-390)
T2 construct: HT1 protein kinase of Arabidopsis thaliana; UniProt Q2MHE4 is printed as the 'long form of HT1' used for the AlphaFold2 model; Expressed from pET30a(+); source: E. coli, purified (Ni resin beads); not shown: His tag, N-terminal, kept
T2 sequence (looked up): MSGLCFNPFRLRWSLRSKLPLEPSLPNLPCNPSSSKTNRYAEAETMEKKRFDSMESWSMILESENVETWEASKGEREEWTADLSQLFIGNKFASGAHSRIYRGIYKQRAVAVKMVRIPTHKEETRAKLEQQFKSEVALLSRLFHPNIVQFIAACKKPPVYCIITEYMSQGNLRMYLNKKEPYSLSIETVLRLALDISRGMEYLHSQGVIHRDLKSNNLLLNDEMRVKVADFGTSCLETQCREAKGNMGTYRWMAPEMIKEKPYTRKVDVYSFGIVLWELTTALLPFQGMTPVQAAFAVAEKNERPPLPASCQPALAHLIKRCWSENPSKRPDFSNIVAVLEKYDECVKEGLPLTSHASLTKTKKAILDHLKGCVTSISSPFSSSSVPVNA


Experiments:
His-HT1-R173Q = target: T1, His-HT1-R173Q; assay: pull-down; GST-MPK on glutathione Sepharose 4B beads, His-HT1 as prey; 5 ug of each protein in 200 ul of 50 mM tris-HCl pH 7.5, 150 mM NaCl, 0.1% Triton X-100, 1 mM DTT; 20 mM NaHCO3 or 20 mM NaCl (control) in all buffers including washes; room temperature; immunoblot with anti-GST and anti-His; details: both partners purified
[1] = target: T2, His-HT1 (high leaf temperature 1, …); assay: as above; details: both partners purified

binding result (His-HT1-R173Q) | binding result [1] | Binder
binds | binds | GST-MPK4 (mitogen-activated protein kinase 4) (enzyme, Arabidopsis thaliana, UniProt Q39024 1-376, looked up, MPK4, MAP kinase of Arabidopsis thaliana; UniProt Q39024 printed for the model; Expressed from pGEX-6P-1; source: E. coli, purified (glutathione Sepharose beads); not shown: GST, N-terminal, kept) MSAESCFGSSGDQSSSKGVATHGGSYVQYNVYGNLFEVSRKYVPPLRPIGRGAYGIVCAATNSETGEEVAIKKIGNAFDNIIDAKRTLREIKLLKHMDHENVIAVKDIIKPPQRENFNDVYIVYELMDTDLHQIIRSNQPLTDDHCRFFLYQLLRGLKYVHSANVLHRDLKPSNLLLNANCDLKLGDFGLARTKSETDFMTEYVVTRWYRAPELLLNCSEYTAAIDIWSVGCILGETMTREPLFPGKDYVHQLRLITELIGSPDDSSLGFLRSDNARRYVRQLPQYPRQNFAARFPNMSAGAVDLLEKMLVFDPSRRITVDEALCHPYLAPLHDINEEPVCVRPFNFDFEQPTLTEENIKELIYRETVKFNPQDSV
 | binds | GST-MPK12 (mitogen-activated protein kinase 12) (enzyme, Arabidopsis thaliana, UniProt Q8GYQ5 1-372, looked up, MPK12, MAP kinase of Arabidopsis thaliana; UniProt Q8GYQ5 printed for the model; Expressed from pGEX-6P-1; source: E. coli, purified (glutathione Sepharose beads); not shown: GST, N-terminal, kept) MSGESSSGSTEHCIKVVPTHGGRYVQYNVYGQLFEVSRKYVPPIRPIGRGACGIVCAAVNSVTGEKVAIKKIGNAFDNIIDAKRTLREIKLLRHMDHENVITIKDIVRPPQRDIFNDVYIVYELMDTDLQRILRSNQTLTSDQCRFLVYQLLRGLKYVHSANILHRDLRPSNVLLNSKNELKIGDFGLARTTSDTDFMTEYVVTRWYRAPELLLNCSEYTAAIDIWSVGCILGEIMTGQPLFPGKDYVHQLRLITELVGSPDNSSLGFLRSDNARRYVRQLPRYPKQQFAARFPKMPTTAIDLLERMLVFDPNRRISVDEALGHAYLSPHHDVAKEPVCSTPFSFDFEHPSCTEEHIKELIYKESVKFNPDH
